Patent US20180022822A1, “NOVEL ANTI-FIBROBLAST ACTIVATION PROTEIN (FAP) BINDING AGENTS AND USES THEREOF” (Mabimmune Diagnostics AG, priority 2016, published 2018)

T1: transmembrane human FAP on FAP expressing HEK293 cells (Homo sapiens, UniProt Q12884)
T1 construct: HEK293 cells were transduced with retrovirus encoding full length human FAP cDNA; host or cells: HEK293 (retroviral transduction, G418 selected)
T1 sequence (Q12884 1-760): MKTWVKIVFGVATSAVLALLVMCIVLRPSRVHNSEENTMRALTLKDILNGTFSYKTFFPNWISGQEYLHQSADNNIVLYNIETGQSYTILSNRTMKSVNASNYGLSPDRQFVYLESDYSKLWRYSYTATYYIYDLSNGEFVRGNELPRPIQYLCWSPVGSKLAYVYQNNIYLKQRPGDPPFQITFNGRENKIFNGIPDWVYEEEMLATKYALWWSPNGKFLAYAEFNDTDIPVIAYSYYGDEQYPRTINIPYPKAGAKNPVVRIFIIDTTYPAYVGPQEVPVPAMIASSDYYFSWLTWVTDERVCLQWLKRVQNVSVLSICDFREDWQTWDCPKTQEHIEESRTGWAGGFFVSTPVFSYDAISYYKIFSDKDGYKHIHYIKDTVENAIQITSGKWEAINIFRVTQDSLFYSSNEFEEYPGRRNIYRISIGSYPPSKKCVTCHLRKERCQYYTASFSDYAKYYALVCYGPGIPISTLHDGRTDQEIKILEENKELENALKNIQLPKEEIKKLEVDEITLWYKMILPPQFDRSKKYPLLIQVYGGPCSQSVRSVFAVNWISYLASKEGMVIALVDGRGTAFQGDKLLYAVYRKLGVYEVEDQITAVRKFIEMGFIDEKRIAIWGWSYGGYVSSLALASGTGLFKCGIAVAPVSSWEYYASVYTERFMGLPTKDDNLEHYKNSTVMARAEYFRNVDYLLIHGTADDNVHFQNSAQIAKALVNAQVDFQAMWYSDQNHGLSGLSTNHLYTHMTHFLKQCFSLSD

T2: captured FAP (sFAP) (Homo sapiens, UniProt Q12884)
T2 sequence (Q12884 1-760): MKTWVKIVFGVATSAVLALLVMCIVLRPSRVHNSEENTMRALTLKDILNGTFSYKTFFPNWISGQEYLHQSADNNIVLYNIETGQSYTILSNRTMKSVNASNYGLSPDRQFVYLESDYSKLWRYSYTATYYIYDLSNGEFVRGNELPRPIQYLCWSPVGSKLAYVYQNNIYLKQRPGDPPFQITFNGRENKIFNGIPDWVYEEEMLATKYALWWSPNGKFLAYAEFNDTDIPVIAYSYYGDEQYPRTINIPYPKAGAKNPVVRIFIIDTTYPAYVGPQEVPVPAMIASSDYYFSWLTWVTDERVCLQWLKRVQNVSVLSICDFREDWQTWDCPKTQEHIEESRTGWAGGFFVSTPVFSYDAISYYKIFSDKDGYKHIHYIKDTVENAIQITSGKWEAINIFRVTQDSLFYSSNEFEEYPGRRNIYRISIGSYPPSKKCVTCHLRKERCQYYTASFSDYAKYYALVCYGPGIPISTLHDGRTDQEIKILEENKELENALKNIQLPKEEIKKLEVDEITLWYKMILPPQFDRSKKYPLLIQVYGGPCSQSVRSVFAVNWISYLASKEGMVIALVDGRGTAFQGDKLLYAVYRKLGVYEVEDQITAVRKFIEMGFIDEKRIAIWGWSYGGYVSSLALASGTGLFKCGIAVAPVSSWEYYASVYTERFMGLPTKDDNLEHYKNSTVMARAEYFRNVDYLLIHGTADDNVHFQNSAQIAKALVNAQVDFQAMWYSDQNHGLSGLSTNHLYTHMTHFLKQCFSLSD


Experiments:
[1] = target: T1, transmembrane human FAP on FAP expressing HEK293 cells; experiment: flow cytometry of Cy5 labelled antibodies on FAP-HEK293 cells in pH adjusted PBS; type: cell-based; conditions: pH 7.4 to 6.2; 0.1-100 nM Cy5 labelled antibody
Experimental: To evaluate the binding of NI-206.82C2, NI-206.59B4, NI-206.27E8, NI-206.12G4, NI-206.18H2 and NI-206.6D3 to transmembrane human FAP, an FAP expressing HEK293 cell line was received from the National Institutes of Health, Bethesda, Md. The generation of this FAP expressing HEK293 cells is described in: J. Exp. Med. 2013 Vol. 210 No. 6 1125-1135. HEK293 cells were transduced with retrovirus encoding full length human FAP cDNA. Cloning was performed using Fast Cloning Pack and FastDigest restriction enzymes (both from Fermentas). Transient retroviral supernatants were generated by transfecting 293GP cells with the FAP plasmid using Lipofectamine 2000 (Invitrogen). Retroviral supernatants were collected at 48 h after transfection and centrifuged onto Retronectin-coated (10 μg/ml; Takara), non-tissue culture-treated 6-well plates at 2,000 G for 2 h at 32° C. These retroviral supernatants where then used to transduce HEK293 cells overnight. Transduced FAP-HEK293 cells were selected with 1 mg/ml G418 (CellGro).
500′000 FAP-HEK293 cells were incubated for 1 hr at 4° C. either with Cy5 labelled NI-206.82C2, NI-206.59B4, NI-206.27E8, NI-206.12G4, NI-206.18H2 or NI-206.6D3 or with Cy5 labelled 43A11 at four different antibody concentrations (0.1, 1, 10, and 100 nM) in seven different pH-adjusted PBS buffers (pH 7.4, 6.8, 6.6, 6.5, 6.4, 6.3 and 6.2). PBS buffers were adjusted to using MES monohydrate (Sigma Aldrich). Following incubation, cells were washed 3 times with 200 uL in matched pH-adjusted PBS, spun at 400G for 4 min, and resuspended in 200 μL of pH adjusted buffer.
To analyze antibody binding, fluorescent activated flow cytometry was performed using a BD Fortesa device for forward scatter, side scatter, and the mean fluorescent intensity (MFI) of the Cy5 channel was recorded using a […] laser excitation and 600/20 filter. Viable cells were gated by forward and side scatter, and singlets/doublet exclusion, and the MFI for Cy5 was quantified using FlowJo software Version 10.1.

[2] = target: T2, captured FAP (sFAP); experiment: capture ELISA, FAP captured via his-tag with coated anti-His antibody; type: binding; conditions: ELISA, varying antibody concentrations
Experimental: (§1) ELISA assays were performed with varying antibody concentrations to validate the binding of the exemplary antibodies of the present invention to FAP and to be able to determine their half maximal effective concentration (EC50). For the exemplary recombinant human NI-206-18H2, NI-206-20A8, NI-206-6D3, ‘NI-206-14C5, NI-206-34C11, NI-206.82C2, NI-206.59B4, NI-206.22F7, NI-206.27E8, NI-206.12G4 and NI-206.17A6 antibodies, 96-well microplates (Costar, Corning, USA) were coated with FAP, with a mixture of the 3 peptides or with BSA (Sigma-Aldrich, Buchs, Switzerland) diluted to a concentration of 5 μg/ml in carbonate ELISA coating buffer (15 mM Na2CO3, 35 mM NaHCO3, pH 9.4) for the direct ELISA. For the capture ELISA, the microplates were coated with mouse anti-His monoclonal antibody (Clontech) diluted to a concentration of 3 μg/ml in PBS, the plates were then blocked, FAP or BSA were diluted to a concentration of 2 μg/ml in PBS and added to the plates to be captured. The binding efficiency of the antibodies was then tested.
The EC50 values were estimated by a non-linear regression using GraphPad Prism (San Diego, USA) software. […] The binding of NI-206.12G4 towards sFAP was not tested.

[3] = target: T3, BSA (Bos taurus, UniProt P02769); experiment: ELISA control binding to BSA; set-up: species or system bovine
T3 construct: purchased Sigma-Aldrich
T3 sequence (P02769 25-607): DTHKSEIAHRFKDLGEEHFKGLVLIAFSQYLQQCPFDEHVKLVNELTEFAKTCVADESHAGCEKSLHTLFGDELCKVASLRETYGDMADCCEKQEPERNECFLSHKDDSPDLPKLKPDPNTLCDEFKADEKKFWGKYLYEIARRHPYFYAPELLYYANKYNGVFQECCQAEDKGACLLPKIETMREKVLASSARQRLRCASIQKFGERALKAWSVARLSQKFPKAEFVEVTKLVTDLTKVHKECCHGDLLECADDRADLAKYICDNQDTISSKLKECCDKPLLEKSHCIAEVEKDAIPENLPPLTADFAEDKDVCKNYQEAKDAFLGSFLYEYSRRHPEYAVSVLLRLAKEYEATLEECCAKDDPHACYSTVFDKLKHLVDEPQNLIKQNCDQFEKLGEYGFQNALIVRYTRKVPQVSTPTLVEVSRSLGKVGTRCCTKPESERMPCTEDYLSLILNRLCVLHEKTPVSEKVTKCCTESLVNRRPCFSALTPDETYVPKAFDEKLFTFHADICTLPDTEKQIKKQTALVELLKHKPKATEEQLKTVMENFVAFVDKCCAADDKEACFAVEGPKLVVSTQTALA
Experimental: as §1

[4] = test system: obstructive human coronary thrombi and aortic atherosclerotic plaque; experiment: confocal immunofluorescence on human coronary thrombi and aortic atherosclerotic plaque; conditions: Cy3 labelled antibody
Experimental: NI-206.82C2 was labelled with Cyanine 3 for fluorescent imaging (Cy3 conjugation kit: Innova Biosciences, 340-0030) and antibody labelling was validated using a spectophotometer. Cryosections from myocardial infarction causing obstructive human coronary thrombi (FIG. 14, A) and human aortic atherosclerotic plaque (FIG. 14, B) were fixed for 5 minutes in ice cold acetone and allowed to dry for 10 minutes before washing in PBS. The sections were then incubated for 1 hr at room temperature in 5% BSA in PBS, and then incubated with Cyanine 3 labelled antibodies overnight at 4° C., before washing three times in PBS before incubation with DAPI at 0.5 μg/mL. Sections were then washed three additional times in PBS and mounted in Lisbeth's mounting medium before imaging on a SP8 confocal microscope (Leica Microsystems).

Row | paratope-specific avidity (ΔMFI) under acidic conditions vs. at pH 7.4 [1] | binding to the captured FAP [2] | binding to BSA [3] | binding to human coronary thrombi and aortic atherosclerotic plaque [4] | Molecule
1 | increased | strongly and similarly bind |  |  | NI-206.6D3: human-derived recombinant anti-FAP antibody; VH SEQ ID NO: 49, VL SEQ ID NO: 51 (antibody, listed as Homo sapiens, V domains shown) VH: EVQLVESGGGLVKPGESLRLSCAASGFTFSKAWMNWVRQGPGKGLEWVGRVKSKTDGGTTDYAAPVKGRFTISRDDSKDTVFLQMNSLKTEDTAVYYCSIQFIVVGDRGRDDQYMDVWGKGTTVTVSS VL: SYVLTQPPSVSVSPGQTARITCSGDALPKQYAFWYQQKPGQAPVIMIYKDNQRPSGIPERFSGSSSGTTVTLTISGVQTEDEADYYCQSADSTNTHVVFGGGTKLTVL
2 | increased | specifically and strongly binds | does not bind | binds | NI-206.82C2: human-derived recombinant anti-FAP antibody; VH SEQ ID NO: 2 or 4 (PIMC), VL SEQ ID NO: 6 (antibody, V domains shown) VH: QVQLQQSGPGLVKPSQTLSLTCAISGDSVSSNSVTWNWIRQSPSRGLEWLGRTYYRSKWYNDYAVSVKGRITINPDTSKNQFYLQLKSVTPEDAAVYYCARDSSILYGDYWGQGTLVTVSS VL: QAVLTQPSSLSASPGASASLTCTLPSGINVGTYRIFWFQQKPGSPPQYLLSYKSDSDNHQGSGVPSRFSGSKDASANAGILLISGLQSEDEADYYCMIWHSSAWVFGGGTKLTVL

Row | Molecule | paratope-specific avidity (ΔMFI) under acidic conditions vs. at pH 7.4 [1] | binding to the captured FAP [2] | binding to BSA [3] | binding to human coronary thrombi and aortic atherosclerotic plaque [4]
3 | NI-206.18H2: human-derived recombinant anti-FAP antibody; VH SEQ ID NO: 41, VL SEQ ID NO: 43 (antibody, listed as Homo sapiens, V domains shown) VH: QVQLQESGPRLVKPSETLSLTCTVSGYSISNGYYWGWIRQPPGQGLEWIASVWHSGNTYHNPSLKSRVTILVDTLKNQFSLNLKSVTAADTALYYCARSYTRNDVGAFETWGQGTMVTVSS VL: SYELTQPPSVSVSPGQTARIACSGDELPKRYAYWYQQKSGQAPVLVMYEDTKRPSGIPERLSGSSSGTVTTLTISGAQVEDEADYYCYSTAPSGNHTFVFGTGTRVTVL | increased | specifically, strongly and similarly bind | does not bind | 
